Reference: PMC3460914, “The Polyoma Virus Large T Binding Protein p150 Is a Transcriptional Repressor of c-MYC”

Experiments:
GST-p150 [1] = target: T1, GST-p150 (human, UniProt F5H433 1-1005); experiment: EMSA; 100 ng protein, 200 ng poly(dA-dT); 10 mM HEPES pH 7.5, 25 nM KCl (so in the source), 2.5 mM MgCl (so in the source), 5 µl ZnCl, 3% glycerol, 2 µg BSA, 200 ng poly(dA-dT); temperature not stated; settings: protein: recombinant; tags: GST; label: 32P (probe); blunt
T1 sequence: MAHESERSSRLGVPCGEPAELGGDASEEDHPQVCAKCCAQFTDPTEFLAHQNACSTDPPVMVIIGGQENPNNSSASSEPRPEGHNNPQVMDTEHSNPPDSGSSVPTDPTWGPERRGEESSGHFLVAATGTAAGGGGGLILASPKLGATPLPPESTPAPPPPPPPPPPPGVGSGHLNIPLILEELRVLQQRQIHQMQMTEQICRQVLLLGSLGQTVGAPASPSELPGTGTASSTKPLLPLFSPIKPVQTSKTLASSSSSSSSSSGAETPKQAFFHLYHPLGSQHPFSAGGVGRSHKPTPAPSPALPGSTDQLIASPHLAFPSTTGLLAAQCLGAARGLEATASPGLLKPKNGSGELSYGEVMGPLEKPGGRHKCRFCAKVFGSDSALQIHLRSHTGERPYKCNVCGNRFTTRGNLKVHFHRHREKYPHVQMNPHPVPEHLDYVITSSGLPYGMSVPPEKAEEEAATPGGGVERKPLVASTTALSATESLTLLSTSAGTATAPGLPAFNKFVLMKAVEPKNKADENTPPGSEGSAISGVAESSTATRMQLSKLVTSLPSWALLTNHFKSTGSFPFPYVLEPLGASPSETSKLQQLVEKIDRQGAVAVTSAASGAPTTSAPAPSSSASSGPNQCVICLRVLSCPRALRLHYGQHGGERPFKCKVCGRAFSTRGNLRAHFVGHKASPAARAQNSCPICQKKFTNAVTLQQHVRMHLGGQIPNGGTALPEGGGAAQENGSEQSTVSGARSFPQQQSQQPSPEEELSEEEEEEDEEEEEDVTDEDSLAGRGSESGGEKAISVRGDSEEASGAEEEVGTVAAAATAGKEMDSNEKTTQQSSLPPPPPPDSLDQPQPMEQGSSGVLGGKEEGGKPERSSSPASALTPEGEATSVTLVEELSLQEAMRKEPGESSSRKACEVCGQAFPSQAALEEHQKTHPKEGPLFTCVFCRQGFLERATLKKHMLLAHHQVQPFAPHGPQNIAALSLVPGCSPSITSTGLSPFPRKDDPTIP

GST-p150 [2] = target: T1, GST-p150; experiment: competition; 50x unlabeled Oct1 vs labeled NHE III1; 10 mM HEPES pH 7.5, 25 nM KCl (so in the source), 2.5 mM MgCl (so in the source), 5 µl ZnCl, 3% glycerol, 2 µg BSA, 200 ng poly(dA-dT); temperature not stated; settings: protein: recombinant; tags: GST; blunt

B1: NHE III1 of c-MYC promoter (dsDNA)
DNA 1: TGGGGAGGGTGGGGAGGGTGGGGAAGG
DNA 2: CCTTCCCCACCCTCCCCACCCTCCCCA
binding result (GST-p150 [1]): binds

B2: p150 consensus sequence (CS) (dsDNA)
DNA 1: GGATCACTGGGTGGGAATCACGCT
DNA 2: AGCGTGATTCCCACCCAGTGATCC
binding result (GST-p150 [1]): binds

B3: Oct1 binding site (dsDNA)
DNA 1: TGTCGAATGCAAATCACTAGAA
DNA 2: TTCTAGTGATTTGCATTCGACA
binding result (GST-p150 [2]): no binding
